For 32 variants, self-cleavage results are on record in the RNAGym collection of RNA variant scans (doi:10.7554/elife.80360).

The chains are these.
B1: HDV Ribozyme (parent)
chain: GGCCGGCAUGGUCCCAGCCUCCUCGCUGGCGCCGGCUGGGCAACAUUCCGAGGGGACCGUCCCCUCGGUAAUGGCGAAUGGGACCCA

The series covers variants of B1. As to the kind of experiment: self-cleavage, relative activity (ratio to wild type); higher = more cleavage; co-transcriptional.
In the case of GGCCGCCAUGGUCCCAGCCUCCUCGCUGGCGCCGGCUGGGCAACCUUCCGAGGGGACCGUCCCCUCGGUAAUGGCGAAUGGGACCCA [G6C A45C], the self-cleavage was found to be 0.185.
Then GGCCGCCAUGGUCCCAGCCUCCUAGCUGGCGCCGGCUGGGCAACAUUCCGAGGGGACCGUCCCCUCGGUAAUGGCGAAUGGGACCCA [G6C C24A], with 0.138; and GGCCGCCAUGGUCCCAGCCUCCUCGCUGGCGCCGGCUGGGCAGCAUUCCGAGGGGACCGUCCCCUCGGUAAUGGCGAAUGGGACCCA [G6C A43G], with 0.
As for GGCCGCAAUGGUCCCAGCCUCCUCGCUGGCGCCGGCUGGGCAACAUUCCGAGGGGACCGUCCCCUCGGUAAUGGCGAAUGGGACCCA [G6C C7A], the figure is 0.772.
Turning to GGCCGCCAUGGUCCCAGCCUCCUCGCUGGCGCCGGCUGGGCAACAUUCCGAGGGGACCGUCCUCUCGGUAAUGGCGAAUGGGACCCA [G6C C63U], the self-cleavage came out at 0.348.
As for GGCCGCCAUGGUCCCAGCCUCGUCGCUGGCGCCGGCUGGGCAACAUUCCGAGGGGACCGUCCCCUCGGUAAUGGCGAAUGGGACCCA [G6C C22G], the figure is 0.145; as for GGCCGCCAUGGUCCCAGCCUCCUCGCUGGCGCCGGCUGGGCAACAUUCGGAGGGGACCGUCCCCUCGGUAAUGGCGAAUGGGACCCA [G6C C49G], 0.166; as for GGCCGCCAUGGUCCCAGCCUCCUCGCUGGCGCCGGCUGGGCAACAUUCCGAGGGGACCGUCACCUCGGUAAUGGCGAAUGGGACCCA [G6C C62A], 0.161.
GGCCGCCAUGGUCCCAGCCUCCUCGCUGGCGCCGGCUGGGCAACAUUCCGAGGGGACCGUCCCCUCGGUAAUGGCGAAUGGGACCGA [G6C C86G]: the self-cleavage was determined as 0.131.
In the case of GGCCGCCAUGGUCCCAGCCUCCUCGCUGGCGCCGGCUGGGCUACAUUCCGAGGGGACCGUCCCCUCGGUAAUGGCGAAUGGGACCCA [G6C A42U], the self-cleavage came out at 0.158.
Then GGCCGCCAUGGUCCCAGCCUCCUCGCUGGCGCCGGCUGGGCCACAUUCCGAGGGGACCGUCCCCUCGGUAAUGGCGAAUGGGACCCA [G6C A42C], with 0.138; and GGCCGCCAUGGUCCCAGCCUCCUCGCUGGCGCCGGCUGGGCAACAUUCCGAGGGGACCGUCCCCUCGGUAAUGGCGCAUGGGACCCA [G6C A77C], with 0.277.
As for GGCCGCCAUGGUCCCAGCCUGCUCGCUGGCGCCGGCUGGGCAACAUUCCGAGGGGACCGUCCCCUCGGUAAUGGCGAAUGGGACCCA [G6C C21G], the figure is 0.0875; as for GGCCGCCAUGGUCCCAGCCUCCUCGCUGGCGCCGGCUGGGCAACAUUCCGAGGGGACCGUACCCUCGGUAAUGGCGAAUGGGACCCA [G6C C61A], 0.161; as for GGCCGCCAUGGUCCCAGCCUCCUCGCUGGCGCCGGCUGGGCAACAUUCCGAGGGGACCGUUCCCUCGGUAAUGGCGAAUGGGACCCA [G6C C61U], 0.285.
Then GGCCGCCAUGGUCCCAGCCUCCUCGCUGGCGCCGGCUGGGCAACAUUCCGAGGGGACCGUCCCCUCGGUAAUGGCGAAUGGGACGCA [G6C C85G], with 0.375.
For GGCCGCCAUGGUCCCAGCCUCCUCGCUGGCGCCGGCUGGGCAACAUUCCGAGGGGACCGUCCCCUCGGUAAUGGCGAAUGGGACACA [G6C C85A], the self-cleavage stood at 0.0791.
As for GGCCGCCAUGGUCCCAGCCUCCUCGCUGGCGCUGGCUGGGCAACAUUCCGAGGGGACCGUCCCCUCGGUAAUGGCGAAUGGGACCCA [G6C C33U], the figure is 0.155.
Then GGCCGCCAUGGUCCCAGCCUCCUCGCUGGCGCCGGCUGGGCAACAUUCCGAGGGGACCGUCCCCUCGGUCAUGGCGAAUGGGACCCA [G6C A70C], with 0.133; and GGCCGCCAUGGUCCCAGCCUCCUCGCUGGCGCCGGCUGGGCAACAUUCCGAGGGGACCGUCCCCUCGGUUAUGGCGAAUGGGACCCA [G6C A70U], with 0.185.
Regarding GGCCGCCAUGGUCCCAGCCUCCUCGCUGGCGCCGGCUGGGCAACAUUCCGAGGGGACCGUCCCCUCGGUACUGGCGAAUGGGACCCA [G6C A71C], the self-cleavage turned out to be 0.0791.
Take GGCCGCCAUGGUCCCAGCCUCCUCGCUGGCGCCGGCUGGGCAACAUUCCGAGGGGACCGUCCCCUCGGUAAUGGCGAUUGGGACCCA [G6C A78U]: the self-cleavage was found to be 0.
As for GGCCGCCAUGGUCCCAGCCUCCUCGCUGGCGCCGGCUGGGCAACAUUCCGAGGGGAGCGUCCCCUCGGUAAUGGCGAAUGGGACCCA [G6C C57G], the figure is 0.396; as for GGCCGCCAUGGUCCCAGCCUCCUCGCUGGCGCCGGCUGGGCAACAUUCCGAGGGGAUCGUCCCCUCGGUAAUGGCGAAUGGGACCCA [G6C C57U], 0.269.
GGCCGCCAUGGUCCGAGCCUCCUCGCUGGCGCCGGCUGGGCAACAUUCCGAGGGGACCGUCCCCUCGGUAAUGGCGAAUGGGACCCA [G6C C15G]: the self-cleavage came out at 0.
As for GGCCGCCAUGGUCCCAGCCUCCUCGCUGGCGCCGGCUGGGCAACAUUCCGAGGGGACUGUCCCCUCGGUAAUGGCGAAUGGGACCCA [G6C C58U], the figure is 0.394; as for GGCCGCCAUGGUCCCAGCCUCCUCGCUGGCGCCGGCUGGGCAACAUUCCGAGGGGACAGUCCCCUCGGUAAUGGCGAAUGGGACCCA [G6C C58A], 0.308.
Then GGCCGCCCUGGUCCCAGCCUCCUCGCUGGCGCCGGCUGGGCAACAUUCCGAGGGGACCGUCCCCUCGGUAAUGGCGAAUGGGACCCA [G6C A8C], with 0.
Then GGCCGCCGUGGUCCCAGCCUCCUCGCUGGCGCCGGCUGGGCAACAUUCCGAGGGGACCGUCCCCUCGGUAAUGGCGAAUGGGACCCA [G6C A8G], with 0.332; and GGCCGCCAUGGUCGCAGCCUCCUCGCUGGCGCCGGCUGGGCAACAUUCCGAGGGGACCGUCCCCUCGGUAAUGGCGAAUGGGACCCA [G6C C14G], with 0.111.
For the variant GGCCGACAUGGUCCCAGCCUCCUCGCUGGCGCCGGCUGGGCAACAUUCCGAGGGGACCGUCCCCUCGGUAACGGCGAAUGGGACCCA [G6A U72C], the self-cleavage was found to be 0.219.
For GGCCGCCAUGGUCCCAGCCUCCUCGCUGGCGCCGGCUGGGCAAAAUUCCGAGGGGACCGUCCCCUCGGUAAUGGCGAAUGGGACCCA [G6C C44A], the self-cleavage was determined as 0.208.
